Test results published in paper PMC6389284, “Heterodimerization of UNC-13/RIM regulates synaptic vesicle release probability but not priming in C. elegans” (eLife, 2019).

Assays:
[1] = target: T1, C. elegans UNC-13 long isoform residues 1-258 bearing the K49E mutation (C. elegans, UniProt P27715 1-258, K49E); test: ITC
T1 sequence: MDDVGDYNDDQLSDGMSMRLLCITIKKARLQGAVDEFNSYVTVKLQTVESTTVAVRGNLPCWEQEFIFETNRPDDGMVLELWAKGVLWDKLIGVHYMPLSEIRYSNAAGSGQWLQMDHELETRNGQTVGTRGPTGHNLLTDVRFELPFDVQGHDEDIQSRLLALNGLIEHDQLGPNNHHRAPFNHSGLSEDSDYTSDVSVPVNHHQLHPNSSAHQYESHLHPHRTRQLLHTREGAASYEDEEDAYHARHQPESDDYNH

[2] = target: T2, C. elegans UNC-13 long isoform residues 1-258 bearing the K49E mutation (C. elegans, UniProt P27715 1-258, K49E); test: ITC; Nano ITC (TA Instruments), 20 mM HEPES pH 7.5, 150 mM NaCl, 25°C; one site independent binding model; UNC-13L 1-258 K49E at 21 µM, UNC-10 62-121 WT at 140 µM or K77/79E at 116 µM; conditions: both partners purified
T2 construct: UNC-13 long isoform, C. elegans, residues 1-258 with K49E; expressed from pGEX6p1; Residues left by HRV3C cleavage of the pGEX6p1 fusion are not described; also called UNC-13L residues 1-258; UNC-13L C2A domain; source: E. coli Rosetta2 (DE3), purified (glutathione sepharose, HRV3C cleavage on beads, Superdex 75)
T2 sequence (looked up): T1 sequence

- Ka [1]: 789000 M⁻¹
- Kd [2]: 1290 nM
B1: C. elegans UNC-10 residues 62-121 WT (domain or fragment, UniProt Q22366 62-121, looked up)
chain: KLVGTQDDAICQICQKTKFADGIGHKCFYCQLRSCARCGGRAQSKNKAIWACSLCQKRQQ
notes: expressed from pGEX6p1; also called UNC-10/RIM ZF domain; source: E. coli Rosetta2 (DE3), grown with ZnSO4, purified (glutathione sepharose, HRV3C cleavage on beads, Superdex 75)
